# T1: PUF4 RNA-binding domain (Saccharomyces cerevisiae, UniProt P25339 537-888)
# T1 sequence: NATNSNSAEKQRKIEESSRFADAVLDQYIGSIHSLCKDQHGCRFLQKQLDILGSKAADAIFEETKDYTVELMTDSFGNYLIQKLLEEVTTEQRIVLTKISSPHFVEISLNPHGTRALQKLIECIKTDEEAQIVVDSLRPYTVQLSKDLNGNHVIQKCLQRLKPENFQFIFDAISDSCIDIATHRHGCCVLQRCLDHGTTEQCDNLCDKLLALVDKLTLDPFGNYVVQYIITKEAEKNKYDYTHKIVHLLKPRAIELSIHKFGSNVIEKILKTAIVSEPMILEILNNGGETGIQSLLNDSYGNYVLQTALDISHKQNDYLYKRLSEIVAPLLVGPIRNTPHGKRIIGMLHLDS
# B1: Id_ii_S2_P3E.2_K3.1_C3.2_[C-2T]_[T-1G]_H3.1_A3.1_F3.1_T3.2 (ssRNA)
# RNA: UUUGAUUAAUAUGAUAUCGUUCUUUCUUGUGUAUAUAUAUUCUUUCUCGAUAUCAUAUUAAUCUUU
# B2: Id_i_S2_P3E.2_K3.1_C3.2_[C-2T]_[T-1A]_H3.1_A3.1_F3.1_T3.2 (ssRNA)
# RNA: UUUGAUUAAUAUGAUAUCGUUCUUUCUUAUGUAUAUAUAUUCUUUCUCGAUAUCAUAUUAAUCUUU
# B3: Id_ii_S2_P3E.3_K3.2_C3.2_[C-2T]_[T-1C]_H3.2_A3.1_F3.1_T3.2 (ssRNA)
# RNA: UUUGAUUAAUAUGAUAUCGUUCUUUCUUCUAUAUAUAUAUUCUUUCUCGAUAUCAUAUUAAUCUUU
# B4: Id_ii_S2_P3E.2_K3.1_C3.2_[C-2A]_[T-1C]_H3.1_A3.1_F3.1_T3.2 (ssRNA)
# RNA: UUUGAUUAAUAUGAUAUCGUUCUUUCUACUGUAUAUAUAUUCUUUCUCGAUAUCAUAUUAAUCUUU
# B5: Id_i_S2_P3E.2_K3.1_C3.2_[C-2T]_[T-1C]_H3.1_A3.1_F3.1_T3.2 (ssRNA)
# RNA: UUUGAUUAAUAUGAUAUCGUUCUUUCUUCUGUAUAUAUAUUCUUUCUCGAUAUCAUAUUAAUCUUU
# Biological target: T1, PUF4 RNA-binding domain
# Assay: Mg; RNA-MaP; 20 mM Na-HEPES pH 7.4, 30 mM KOAc, 0.75 mM MgCl2, 0.1% Tween-20, 5% glycerol, 0.1 mg/mL BSA, 2 mM DTT; 25 C; 0.0125-409.6 nM protein
# Details: tags: N-His6-TEV cleaved; C-SNAP kept, Cy3B-labelled; label: tethered on chip by stalled RNA polymerase
row,Binder,Kd [nM]
1,UCUCUUACUAUAUAUAUAUCUCUU (ssRNA) [Id_i_S1_P3E.3_K3.2_C3.2_[C-2A]_[T-1C]_H3.2_A3.1_F3.1_T3.2],458
2,UCUCUUAACUGUAUAUAUAUCUCUU (ssRNA) [Id_i_S1_P3E.5_K3.1_C3.3_[T-3A]_[C-2A]_[T-1C]_H3.1_A3.1_F3.1_T3.2],6.08
3,UCUCUUAAUGUAUAUAUAUCUCUU (ssRNA) [Id_i_S1_P3E.2_K3.1_C3.2_[C-2A]_[T-1A]_H3.1_A3.1_F3.1_T3.2],7.22
4,UCUCUUCGCUGUAUAUAUAUCUCUU (ssRNA) [Id_i_S1_P3E.5_K3.1_C3.3_[T-3C]_[C-2G]_[T-1C]_H3.1_A3.1_F3.1_T3.2],8.53
5,UCUCUUCAAUAUAUAUAUAUCUCUU (ssRNA) [Id_i_S1_P3E.6_K3.2_C3.3_[T-3C]_[C-2A]_[T-1A]_H3.2_A3.1_F3.1_T3.2],777
6,UCUCUUUCACACUAUAUAUCUCUU (ssRNA) [Id_i_S1_P3E.4_K3.3_C3.2_[C-2T]_[T-1C]_H3.3_A3.1_F3.1_T3.2],> 2300
7,UCUCUUUGUAUACUUUCUCUU (ssRNA) [Ic_S1_P4E.1_K4.1_C4.1_H4.1_A4.1_[T7C]_F4.1_[A9T]_T4.1],5.99
8,UCUCUUAGCUGUAUAUAUAUCUCUU (ssRNA) [Id_i_S1_P3E.5_K3.1_C3.3_[T-3A]_[C-2G]_[T-1C]_H3.1_A3.1_F3.1_T3.2],7.66
9,UCUCUUCUCACACUAUAUAUCUCUU (ssRNA) [Id_i_S1_P3E.7_K3.3_C3.3_[T-3C]_[C-2T]_[T-1C]_H3.3_A3.1_F3.1_T3.2],> 2300
10,UCUCUUCUAACACUAUAUAUCUCUU (ssRNA) [Id_i_S1_P3E.7_K3.3_C3.3_[T-3C]_[C-2T]_[T-1A]_H3.3_A3.1_F3.1_T3.2],> 2300
11,UCUCUUCUAUGUAUAUAUAUCUCUU (ssRNA) [Id_i_S1_P3E.5_K3.1_C3.3_[T-3C]_[C-2T]_[T-1A]_H3.1_A3.1_F3.1_T3.2],10.2
12,UCUCUUUCUAUAUAUAUAUCUCUU (ssRNA) [Id_ii_S1_P3E.3_K3.2_C3.2_[C-2T]_[T-1C]_H3.2_A3.1_F3.1_T3.2],368
13,UCUCUUUAACACUAUAUAUCUCUU (ssRNA) [Id_ii_S1_P3E.4_K3.3_C3.2_[C-2T]_[T-1A]_H3.3_A3.1_F3.1_T3.2],2160
14,UCUCUUCGCUAUAUAUAUAUCUCUU (ssRNA) [Id_i_S1_P3E.6_K3.2_C3.3_[T-3C]_[C-2G]_[T-1C]_H3.2_A3.1_F3.1_T3.2],517
15,UCUCUUCUCUAUAUAUAUAUCUCUU (ssRNA) [Id_i_S1_P3E.6_K3.2_C3.3_[T-3C]_[C-2T]_[T-1C]_H3.2_A3.1_F3.1_T3.2],389
16,UCUCUUAAACACUAUAUAUCUCUU (ssRNA) [Id_i_S1_P3E.4_K3.3_C3.2_[C-2A]_[T-1A]_H3.3_A3.1_F3.1_T3.2],> 2300
17,UCUCUUGUUAUAUUAUCUCUU (ssRNA) [Ib_S1_P4E.1_K4.1_C4.1_H4.1_[T1G]_[G2T]_A4.1_F4.1_T4.1],12.3
18,UCUCUUUAUAUAUAUAUAUCUCUU (ssRNA) [Id_i_S1_P3E.3_K3.2_C3.2_[C-2T]_[T-1A]_H3.2_A3.1_F3.1_T3.2],439
19,UCUCUUCACUAUAUAUAUAUCUCUU (ssRNA) [Id_i_S1_P3E.6_K3.2_C3.3_[T-3C]_[C-2A]_[T-1C]_H3.2_A3.1_F3.1_T3.2],144

row,Binder,Kd [nM]
1,UCUCUUAUCUGUAUAUAUAUCUCUU (ssRNA) [Id_i_S1_P3E.5_K3.1_C3.3_[T-3A]_[C-2T]_[T-1C]_H3.1_A3.1_F3.1_T3.2],6.91
2,UCUCUUGUCACACUAUAUAUCUCUU (ssRNA) [Id_i_S1_P3E.7_K3.3_C3.3_[T-3G]_[C-2T]_[T-1C]_H3.3_A3.1_F3.1_T3.2],39
3,UCUCUUGCUAUAUUAUCUCUU (ssRNA) [Ib_S1_P4E.1_K4.1_C4.1_H4.1_[T1G]_[G2C]_A4.1_F4.1_T4.1],481
4,UCUCUUGGCACACUAUAUAUCUCUU (ssRNA) [Id_i_S1_P3E.7_K3.3_C3.3_[T-3G]_[C-2G]_[T-1C]_H3.3_A3.1_F3.1_T3.2],821
5,UCUCUUAGUAUAUAUAUAUCUCUU (ssRNA) [Id_i_S1_P3E.3_K3.2_C3.2_[C-2A]_[T-1G]_H3.2_A3.1_F3.1_T3.2],576
6,UCUCUUUGACACUAUAUAUCUCUU (ssRNA) [Id_i_S1_P3E.4_K3.3_C3.2_[C-2T]_[T-1G]_H3.3_A3.1_F3.1_T3.2],2180
7,UCUCUUCUGUAUAUAUAUAUCUCUU (ssRNA) [Id_i_S1_P3E.6_K3.2_C3.3_[T-3C]_[C-2T]_[T-1G]_H3.2_A3.1_F3.1_T3.2],8.87
8,UCUCUUCAAACACUAUAUAUCUCUU (ssRNA) [Id_i_S1_P3E.7_K3.3_C3.3_[T-3C]_[C-2A]_[T-1A]_H3.3_A3.1_F3.1_T3.2],2040
9,UCUCUUCUCUGUAUAUAUAUCUCUU (ssRNA) [Id_i_S1_P3E.5_K3.1_C3.3_[T-3C]_[C-2T]_[T-1C]_H3.1_A3.1_F3.1_T3.2],4.39
10,UCUCUUAUCACACUAUAUAUCUCUU (ssRNA) [Id_i_S1_P3E.7_K3.3_C3.3_[T-3A]_[C-2T]_[T-1C]_H3.3_A3.1_F3.1_T3.2],1520
11,UCUCUUACACACUAUAUAUCUCUU (ssRNA) [Id_i_S1_P3E.4_K3.3_C3.2_[C-2A]_[T-1C]_H3.3_A3.1_F3.1_T3.2],998
12,UCUCUUGUCUGUAUAUAUAUCUCUU (ssRNA) [Id_i_S1_P3E.5_K3.1_C3.3_[T-3G]_[C-2T]_[T-1C]_H3.1_A3.1_F3.1_T3.2],4.63
13,UCUCUUCUAUAUAUAUAUAUCUCUU (ssRNA) [Id_i_S1_P3E.6_K3.2_C3.3_[T-3C]_[C-2T]_[T-1A]_H3.2_A3.1_F3.1_T3.2],341
14,UCUCUUAAUAUAUAUAUAUCUCUU (ssRNA) [Id_i_S1_P3E.3_K3.2_C3.2_[C-2A]_[T-1A]_H3.2_A3.1_F3.1_T3.2],675
15,UCUCUUAUCUAUAUAUAUAUCUCUU (ssRNA) [Id_i_S1_P3E.6_K3.2_C3.3_[T-3A]_[C-2T]_[T-1C]_H3.2_A3.1_F3.1_T3.2],650
16,UCUCUUGCACACUAUAUAUCUCUU (ssRNA) [Id_i_S1_P3E.4_K3.3_C3.2_[C-2G]_[T-1C]_H3.3_A3.1_F3.1_T3.2],116
17,UCUCUUAAAUAUAUAUAUAUCUCUU (ssRNA) [Id_i_S1_P3E.6_K3.2_C3.3_[T-3A]_[C-2A]_[T-1A]_H3.2_A3.1_F3.1_T3.2],1040
18,UCUCUUUGUAUAAUUUCUCUU (ssRNA) [Ib_S1_P4E.1_K4.1_C4.1_H4.1_A4.1_[T7A]_F4.1_[A9T]_T4.1],8.41
19,UCUCUUAAAACACUAUAUAUCUCUU (ssRNA) [Id_i_S1_P3E.7_K3.3_C3.3_[T-3A]_[C-2A]_[T-1A]_H3.3_A3.1_F3.1_T3.2],2250

row,Binder,Kd [nM]
1,UCUCUUGGCUGUAUAUAUAUCUCUU (ssRNA) [Id_i_S1_P3E.5_K3.1_C3.3_[T-3G]_[C-2G]_[T-1C]_H3.1_A3.1_F3.1_T3.2],6.92
2,UCUCUUAAAUGUAUAUAUAUCUCUU (ssRNA) [Id_i_S1_P3E.5_K3.1_C3.3_[T-3A]_[C-2A]_[T-1A]_H3.1_A3.1_F3.1_T3.2],10.3
3,UCUCUUCAAUGUAUAUAUAUCUCUU (ssRNA) [Id_i_S1_P3E.5_K3.1_C3.3_[T-3C]_[C-2A]_[T-1A]_H3.1_A3.1_F3.1_T3.2],7.95
4,UCUCUUGACUAUAUAUAUAUCUCUU (ssRNA) [Id_i_S1_P3E.6_K3.2_C3.3_[T-3G]_[C-2A]_[T-1C]_H3.2_A3.1_F3.1_T3.2],806
5,UCUCUUUGUAUAGUUUCUCUU (ssRNA) [Ic_S1_P4E.1_K4.1_C4.1_H4.1_A4.1_[T7G]_F4.1_[A9T]_T4.1],9.53
6,UCUCUUCACUGUAUAUAUAUCUCUU (ssRNA) [Id_i_S1_P3E.5_K3.1_C3.3_[T-3C]_[C-2A]_[T-1C]_H3.1_A3.1_F3.1_T3.2],5.56
7,UCUCUUGUCUAUAUAUAUAUCUCUU (ssRNA) [Id_i_S1_P3E.6_K3.2_C3.3_[T-3G]_[C-2T]_[T-1C]_H3.2_A3.1_F3.1_T3.2],102
8,UCUCUUAACACACUAUAUAUCUCUU (ssRNA) [Id_i_S1_P3E.7_K3.3_C3.3_[T-3A]_[C-2A]_[T-1C]_H3.3_A3.1_F3.1_T3.2],2180
9,UCUCUUAGACACUAUAUAUCUCUU (ssRNA) [Id_ii_S1_P3E.4_K3.3_C3.2_[C-2A]_[T-1G]_H3.3_A3.1_F3.1_T3.2],> 2300
10,UCUCUUGCUAUAUAUAUAUCUCUU (ssRNA) [Id_i_S1_P3E.3_K3.2_C3.2_[C-2G]_[T-1C]_H3.2_A3.1_F3.1_T3.2],569
11,UCUCUUUGUAUAUAUAUAUCUCUU (ssRNA) [Id_ii_S1_P3E.3_K3.2_C3.2_[C-2T]_[T-1G]_H3.2_A3.1_F3.1_T3.2],6.55
12,UCUCUUAGCACACUAUAUAUCUCUU (ssRNA) [Id_i_S1_P3E.7_K3.3_C3.3_[T-3A]_[C-2G]_[T-1C]_H3.3_A3.1_F3.1_T3.2],> 2300
13,UCUCUUAGCUAUAUAUAUAUCUCUU (ssRNA) [Id_i_S1_P3E.6_K3.2_C3.3_[T-3A]_[C-2G]_[T-1C]_H3.2_A3.1_F3.1_T3.2],805
14,B1,1.57
15,B2,4.51
16,B3,71.4
17,B4,1.6
18,B5,1.18

# Reference: PMC9352680, “A comprehensive thermodynamic model for RNA binding by the Saccharomyces cerevisiae Pumilio protein PUF4”
